Experimental data reported in the supplement of paper PMC10567573.
± gives the standard deviation.

Assay: protein stability index of a GFP-peptide fusion (GPS, HEK-293T) (PSI 1-6); higher = more stable
[1] = treatment: DMSO, c terminus: a fixed tail appended
[2] = treatment: MLN4924 1 uM, 8 h, c terminus: a fixed tail appended
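Also: 24-mer peptide tiles fused after GFP, lentivirally expressed, FACS-sorted into six equal bins by GFP/DsRed ratio, decoded by Illumina sequencing, PSI is the read-weighted mean bin number.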

Sequence	protein stability index [1]	protein stability index [2]	protein stability index (treatment: DMSO, c terminus: native)	protein stability index (treatment: MLN4924 1 uM, 8 h, c terminus: native)
HTNCFELSIYVGCDKYPHESQLPE [CPXM2]	2.54 ± 0.34	2.44 ± 0.051	–	–
HTPAGAAVSAMKCGLLPISPEALS [ADD1]	3.13 ± 0.25	3.29 ± 0.32	–	–
HTVPDFHLSSPAKNFFKKAAAALF [PLK2]	2.74 ± 0.96	2.65 ± 0.73	–	–
HVFQRQKSELSDGIAILVGSNDRV [TRIM55]	3.18 ± 0.25	3.21 ± 0.21	–	–
HVMGLYPDLLPTDYRKQLQYPNPL [VPS39]	2.34 ± 0.28	2.59 ± 0.24	–	–
HYGNIMYDRRVIRGNTYALQTGPL [RSPH3]	2.33 ± 0.1	2.13 ± 0.32	–	–
ICELVMALDYLQNQRIIHRDMKPD [STK32A]	2.62 ± 0.64	2.44 ± 0.5	–	–
ICPKCWTLMTMAIRIIDRALKEDF [PRIM1]	2.25 ± 0.26	2.57 ± 0.37	–	–
ICPLKERRFGAVACGVAMELYVFG [GAN]	2.36 ± 0.53	2.96 ± 1.1	–	–
IDNTTVIYNSNIFTDPFFIVETLC [KCNA1]	2.72 ± 0.67	2.53 ± 0.37	–	–
IEKTGGVEAVKNELRRQAPPPPPP [WASL]	4.492 ± 0.027	4.46 ± 0.58	–	–
IGESMYGDFEEAFDHLQNRLIATK [TENT5C]	3.63 ± 0.12	3.59 ± 0.067	–	–
IGGHLVRDNDHPDHSSRELSKILA [FUT8]	3.92 ± 0.19	3.9 ± 0.18	–	–
IISKPVPQTLIMAYDYAKEVNSAE [FEM1C]	2.93 ± 0.34	2.81 ± 0.16	–	–
IKDLSVVHSDLSSIVILDNSPGAY [CTDNEP1]	2.49 ± 0.23	2.48 ± 0.3	–	–
ILGETQEEEDEILPRKDYESLDYD [CLCN6]	5.33 ± 0.2	5.18 ± 0.086	–	–
ILHTAWHPSENIIAVAATNNLYIF [PPP2R2B]	3.17 ± 0.04	–	–	–
ILKNLSQVAMRCRCSSMHFLVAEW [SAT1]	2.4 ± 0.2	2.65 ± 0.31	–	–
ILNLKKKECKDRGFEYDGKINAWD [NLN]	2.97 ± 0.26	3.43 ± 0.6	–	–
ILSGHEHAVSTCHFCVDDTKLLSG [WDR88]	2.71 ± 0.35	2.92 ± 0.35	–	–
IMNDLSNRVWSISQEPDPVQRLQA [TRIM14]	3.16 ± 0.31	3.16 ± 0.17	–	–
INGLQAWLLTHLLWFANAHLLSWF [DHCR7]	3.18 ± 0.3	3.07 ± 0.44	–	–

Sequence	protein stability index [1]	protein stability index [2]	protein stability index (treatment: DMSO, c terminus: native)	protein stability index (treatment: MLN4924 1 uM, 8 h, c terminus: native)
INSTAPFEEQENYFLLCDVLPEDR [ZNF277]	3.92 ± 0.36	4.12 ± 0.18	–	–
INVWDVLKGSRVSILFGHENRVST [GNB5]	2.31 ± 0.33	2.27 ± 0.34	–	–
IQDRLSNTLQTYIRCRHPPPGSHL [VDR]	2.73 ± 0.17	2.74 ± 0.22	–	–
IQKLTQIETGENVTGMELEFKRLA [PTPRD]	3.51 ± 0.08	3.55 ± 0.43	–	–
IQLKSVADGQESTPPTPAPTSGIV [WASL]	4.68 ± 0.21	4.84 ± 0.16	–	–
IQRPANAIKEMIENCLDAKSTSIQ [MLH1]	4.16 ± 0.16	–	–	–
IRDIRRRGKNKMAAQNCRKRKLDT [NFE2L1]	3.84 ± 0.29	3.94 ± 0.32	–	–
IRPVAGYLSPRDFLSGLAFRVFHC [TPH1]	2.1 ± 0.13	2.12 ± 0.1	–	–
ISKNKKKASNSIISCFNNAPPAKL [FAN1]	3.36 ± 0.21	2.79 ± 0.31	–	–
ISLALFVLPKPKVISCLEQGEEPW [ZNF75A]	3.21 ± 0.49	2.9 ± 0.56	–	–
ISLTCVSVAFAVAWFLPMPQKSLF [SLC19A2]	3.15 ± 0.18	3.19 ± 0.17	–	–
ISPRGAGYTFGQDISETFNHANGL [PPP2CA]	3.17 ± 0.26	3.23 ± 0.41	–	–
ISRALLSDVVPEKERPLVIGHFNT [MFSD9]	3.04 ± 0.45	2.99 ± 0.31	–	–
ITATSLLGTRESDTEVITVEKSSP [BCL2L13]	4.91 ± 0.19	5.01 ± 0.16	–	–
ITSSIPDTERLDDFHLSIHSDMAA [DVL3]	4.08 ± 0.22	4.3 ± 0.17	–	–
ITTVSKAKGASLFTCDLQHTETGE [VPS39]	4.06 ± 0.25	3.99 ± 0.21	–	–
IVITGDADIDHDQALAQAIKEAKE [EPB41L3]	2.85 ± 0.58	3.45 ± 0.48	–	–
IVKQMKIIHEAGYSEEECKQYKAV [GNAI1]	3.13 ± 0.22	3.77 ± 0.23	–	–
IVKQQDPLVYKAIQQGINAVNQEA [ACSBG2]	3.75 ± 0.11	3.82 ± 0.12	–	–
IYAMKILRKSDMLEKEQVAHIRAE [STK38L]	2.33 ± 0.26	2.48 ± 0.22	–	–
IYTEFPDETLRSGELLNMIVAVID [INTS3]	2.14 ± 0.29	2.47 ± 0.099	–	–
KAEGGEEDSLGCLTADTKEVTASQ [IRX6]	5.49 ± 0.22	5.48 ± 0.24	–	–

Sequence	protein stability index [1]	protein stability index [2]	protein stability index (treatment: DMSO, c terminus: native)	protein stability index (treatment: MLN4924 1 uM, 8 h, c terminus: native)
KAGQPESRALALFDIQKIMQEKNP [ZNF8]	4.06 ± 0.36	4.26 ± 0.12	–	–
KALTTLCDLADRELVVIIGWAKHI [ESRRG]	2.83 ± 0.38	2.79 ± 0.62	–	–
KAQAKVGSLDNAHHVPGGGNVKID [MAP2]	4.85 ± 0.12	4.87 ± 0.34	–	–
KCAEVIIPLLSSVNVSDRGGRTAL [ANKRD44]	2.38 ± 0.37	2.37 ± 0.16	–	–
KDGKLLAATLLLALLSCCLTVVSF [TNFSF13B]	3.26 ± 0.39	3.35 ± 0.32	–	–
KDIAGEFKEQLQALIPYVLNPSKL [ATL3]	2.19 ± 0.11	2.32 ± 0.18	–	–
KDPRQWTETHVRDWVMWAVNEFSL [ETS1]	2.67 ± 1.1	2.23 ± 0.34	–	–
KDQQTFARSVGLKWRKVGRSLQRG [TRADD]	3.27 ± 0.34	3.49 ± 0.3	–	–
KEAGLSQSHDDLSNATATPSVRKK [C2CD2L]	5.44 ± 0.19	5.53 ± 0.28	–	–
KEEVRAALEQREQDAVDQVKVIMD [TRIM29]	5.23 ± 0.36	5.39 ± 0.13	–	–
KENEMMKSHVMDQAINNAINYLGA [IKZF1]	3.24 ± 0.089	2.87 ± 0.3	–	–
KERLKPAHIHLQQLTCFSITCSST [KRT34]	2.1 ± 0.34	2.49 ± 0.22	–	–
KGFIQKGNLNIHQRTHTGEKPYGC [ZNF649]	3.67 ± 0.14	3.68 ± 0.2	–	–
KGKLFTWNILKTIALGQMLSLCIC [SLC35F2]	2.62 ± 0.89	2.57 ± 0.57	–	–
KGNREDSARMSAGLPGPEAARSGD [PLEKHN1]	5.41 ± 0.39	5.39 ± 0.41	–	–
KGSPDVSASSDEPYARIQQSRRQC [SMIM2]	4.74 ± 0.18	5.02 ± 0.2	–	–
KGTILYLQKDEYRPDKALSEGDLK [PSD2]	3.99 ± 0.21	4.04 ± 0.18	–	–
KHKRQMQDPQLHSPFSGSLHAPPA [VENTX]	3.98 ± 0.28	3.83 ± 0.25	–	–
KIIFRVGLVLLKHALGSPEKVKAC [TBC1D10A]	2.77 ± 0.43	2.76 ± 0.19	–	–
KIRKIHTQRQYKEDESQSEEENDY [CEP70]	5.14 ± 0.21	5.16 ± 0.18	–	–
KISGGPHISYPPLHEWVLREGEE [MAGEA3]	–	–	2.92 ± 0.62	3.33 ± 0.43
KIYDSPCLPEAEAMFAINADGVGD [RAD51]	4.71 ± 0.19	4.65 ± 0.38	–	–
